Laboratory results from patent US20190284262A1 (Memorial Sloan Kettering, published 2019).

B1: EXT017-53 scFv phage clone (scFv)
scFv: NFMLTQPHSVSESPGKTVTISCTRSSGSIASHYVQWYQQRPGSSPTTVIYENNQRPSGVPDRFSGSIDSSSNSASLTISGLKTEDEADYYCQSYDRSNHVVFGGGTKLTVLGSRGGGGSGGGGSGGGGSLEMAQVQLVQSGAEVKKPGASVKVSCKASGYTFTNYYIHWVRQAPGEGLEWMGIIRPSGGNTNYAQKFQGRVTMTRDTSTRTVYMELSSLRSEDTAVYYCARSWNSRDVDSWGQGTLVTVSSTSGQAGQHHHHHHGAYPYDVPDYAS
notes: full-length scFv with His+HA tags; also called EXT017-53 phage
B2: EXT017-27 scFv phage clone (scFv)
scFv: QAVLTQPPSVSVAPGKTARLTCGGNNIGSESVHWYQQKPGQAPLLVVYDDDDRPSGIPERFSGSNSGNTATLTISRVEAGDEADYYCQVWDRSSDHWFFGGGTKLTVLGSRGGGGSGGGGSGGGGSLEMAQVQLVQSGAEVKKPGASVKVSCKASGYTFTNYYIHWVRQAPGQGLEWMGIIRPSGGITNYAQKFQGRVSMTRDTSTSTVYMELSSLRSEDTAVYYCARSWDYFASNDFWGQGTLVTVSSTSGQAGQHHHHHHGAYPYDVPDYAS
notes: full-length scFv with His+HA tags; also called EXT017-27 phage; phage clone #27
B3: EXT017-17 scFv phage clone (scFv)
scFv: QSVLTQPPSVSGAPGQRVTISCTGSSSNIGAGYDVHWYQQLPGTAPKLLIYGNSNRPSGVPDRFSGSKSGTSASLAITGLQAEDEADYYCQSYDSSLSGYVFGTGTKVTVLGSRGGGGSGGGGSGGGGSLEMAEVQLVQSGAEVKKPGSSVKVSCKASGDTFSRYAISWVRQAPGQGLEWMGRIIPIFGTPNYAQKFQGRVTITADEFTSTAYMELSSLRSEDTAMYYCARSIYRYSEYDHWGQGTLVTVSSTSGQAGQHHHHHHGAYPYDVPDYAS
notes: fusion to the phage coat protein not described; also called EXT017-17 phage; phage clone #17
B4: Clone #24 (scFv)
scFv (VL-linker-VH-His/HA tag): QAVLTQPPSVSAAPGQKVTISCSGSSSNIGNNYVSWYQQLPGTAPKLLIYDNNKRPSGLPDRFSGSKSGTSATLGITGLQTGDEADYYCGTWDSSLNAVVFGGGTQLTVLSSRGGGGSGGGGSGGGGSLEMAQVQLVQSGAEVKKPGASVKVSCKASGYTFTNYYIHWVRQAPGQGLEWMGIIRPSGGITNYAQKFQGRVTMTRDTSTSTVYMELSSLRSEDTAVYYCARSWSNKLSWYNDGWGQGTLVTVSSTSGQAGQHHHHHHGAYPYDVPDYAS
notes: also called EXT017-24; EXT017-24 scFv phage clone
B5: Clone #23 (scFv)
scFv (VL-linker-VH-His/HA tag): SYELTQPPSVSVAPGQTAWITCGGNNIGSKSVHWYQQKPGQAPILVVYDDSDRPSGIPERVSGSNSGNTATLTISRVEAGDEADYYCQVWDSSSDRWVFGGGTKLTVLGSRGGGGSGGGGSGGGGSLEMAQMQLVQSGAEVKKPGASVKVSCKASGYTFTNYGISWVRQAPGQGLEWMGWISPYNGNTNYAQKLQGRVTMTTDTSTSTAYMELRNLRSDDTAVYYCARYWDSGYAYDEWGQGTLVTVSSTSGQAGQHHHHHHGAYPYDVPDYAS
notes: also called EXT017-23; EXT017-23 scFv phage clone
B6: EXT017-20 scFv phage clone (scFv)
scFv: QSVVTQPPSVSAAPGQKVTISCSGSSSNIGAGYDVHWYQQLPGTAPKLLIYGNSNRPSGVPDRFSGSKSGTSASLAITGLQAEDEADYYCQSYDSSLSGSVFGGGTKLTVLGSRGGGGSGGGGSGGGGSLEMAEVQLVQSGAEVKKPGSSVKVSCKASGGTFSSYAISWVRQAPGQGLEWMGGIIPIFGTANYAQKFQGRVTITADESTSTAYMELSSLRSEDTAVYYCARYSYKYGELDTWGQGTLVTVSSTSGQAGQHHHHHHGAYPYDVPDYAS
notes: full-length scFv with His+HA tags; also called EXT017-20 phage
B7: Clone #10 (scFv)
scFv (VL-linker-VH-His/HA tag): QAVLTQPPSASGTPGQRVTISCSGGSSNIGVNPVNWYQQLPGTAPKLLIFANYQRPSGVPDRFSGSKSGTSASLAISGLQSDDEAHYYCSTWDDSLNAWLFGGGTKLTVLGSRGGGGSGGGGSGGGGSLEMAEVQLVQSGAEVKKPGDSLRISCQGSGYSFTSYYISWVRQMPGKGLEWMGNIDPSDSYTNYSPSFQGHVTMSVDKSISTAYLQWSSLKASDIAIYYCVRHGFSNSPRLWFDTWGQGTLVTVSSTSGQAGQHHHHHHGAYPYDVPDYAS
notes: also called EXT017-10; EXT017-10 scFv phage clone
B8: Clone #5 (scFv)
scFv (VL-linker-VH-His/HA tag): QSALTQPPSASGSPGQSVTISCTGTSSDVGGYNYVSWYQQHPGKAPKLMIYEVSKRPSGVPDRFSGSKSGNTASLTVSGLQAEDEADYYCSSYAGSNTHVVFGGGTKLTVLGSRGGGGSGGGGSGGGGSLEMAEVQLVQSGAEVKKPGASVKISCKASRYTFTNYYIHWVRQAPGQGLEWMGIINPSGGSTTYPQNFQGRLTMTRDTSTSTVYMELSSLRSEDTAMYYCARGWSGYDPGDFWGQGTLVTVSSTSGQAGQHHHHHHGAYPYDVPDYAS
notes: also called EXT017-5; EXT017-5 scFv phage clone

Columns and labels:
[1] = target: T1, HLA-A*02:01 on T2 cells alone (no peptide added) (human); assay: flow cytometry, phage on T2 without peptide; secondary only 320, unstained 91.4
T1 construct: TAP-deficient T2 cells without pulsed peptide; negative control target, and the HLA molecule whose stabilisation by peptides is read in the T2 stabilization assay; also called HLA-A*02 molecule; HLA-A2 molecule

[2] = target: T2, R3 (RHAMM-R3) peptide/HLA-A*02:01 complex on T2 cells (human); assay: flow cytometry, phage on T2 + R3 peptide (as the table names the samples); secondary only 109, unstained 80.9
T2 construct: Control target of the phage staining of T2 cells; also called T2 cells pulsed with R3 peptide; RHAMM 3 (R3)

[3] = target: T3, Foxp3-7 peptide/HLA-A*02:01 complex on the cell surface (human); assay: flow cytometry, phage on T2 + Foxp3-7 peptide; secondary only 318, unstained 95.8
T3 construct: also called Foxp3-7/HLA-A2 complex

[4] = target: T1, HLA-A*02:01 on T2 cells alone (no …); assay: flow cytometry, phage on T2 without peptide
[5] = target: T4, 017-mut3 peptide (…)/HLA-A*02:01 complex on T2 cells (human); assay: flow cytometry, phage on peptide-loaded T2 cells
T4 construct: Alanine mutant at position 3

[6] = target: T5, 017-mut5 peptide (…)/HLA-A*02:01 complex on T2 cells (human); assay: flow cytometry, phage on peptide-loaded T2 cells
T5 construct: Alanine mutant at position 5

[7] = target: T6, 017-mut7 peptide (…)/HLA-A*02:01 complex on T2 cells (human); assay: flow cytometry, phage on peptide-loaded T2 cells
T6 construct: Alanine mutant at position 7

[8] = target: T7, 017-mut9 peptide (…)/HLA-A*02:01 complex on T2 cells (human); assay: flow cytometry, phage on peptide-loaded T2 cells
T7 construct: Alanine mutant at position 9

[9] = target: T3, Foxp3-7 peptide/HLA-A*02:01 complex on …; assay: flow cytometry, phage on peptide-loaded T2 cells
[10] = target: T8, 017-mut2 peptide (…)/HLA-A*02:01 complex on T2 cells (human); assay: flow cytometry, phage on peptide-loaded T2 cells
T8 construct: Alanine mutant at position 2, the anchor position; the peptide may load poorly onto HLA-A2; also called EXT017-mut2

[11] = target: T9, 017-mut4 peptide (…)/HLA-A*02:01 complex on T2 cells (human); assay: flow cytometry, phage on peptide-loaded T2 cells
T9 construct: Alanine mutant at position 4

[12] = target: T10, 017-mut1 peptide (…)/HLA-A*02:01 complex on T2 cells (human); assay: flow cytometry, phage on peptide-loaded T2 cells
T10 construct: Alanine mutant of Foxp3-7 at position 1, pulsed onto T2 cells; also called EXT017-mut1

[13] = target: T11, 017-mut8 peptide (…)/HLA-A*02:01 complex on T2 cells (human); assay: flow cytometry, phage on peptide-loaded T2 cells
T11 construct: Alanine mutant at position 8; also called TLI-A8

[14] = target: T12, T2+EW (Homo sapiens, UniProt A*02:01); assay: flow cytometry, phage on T2 + EW peptide; secondary only 310, unstained 93
T12 construct: on the surface of T2 cells; irrelevant control peptide; also called EW peptide/HLA-A*02:01 complex on T2 cells; T2 pulsed with EW peptide

[15] = target: T3, Foxp3-7 peptide/HLA-A*02:01 complex on …; assay: flow cytometry, phage on T2 + Foxp3-7 peptide; secondary only 104, unstained 81.7
[16] = target: T1, HLA-A*02:01 on T2 cells alone (no …); assay: flow cytometry, phage on T2 cells, no peptide
[17] = target: T1, HLA-A*02:01 on T2 cells alone (no …); assay: flow cytometry, phage on T2 without peptide; secondary only 121, unstained 106
[18] = target: T3, Foxp3-7 peptide/HLA-A*02:01 complex on …; assay: flow cytometry, phage on T2 + Foxp3-7 peptide; secondary only 116, unstained 93.8
[19] = target: T2, R3 (RHAMM-R3) peptide/HLA-A*02:01 …; assay: flow cytometry, phage on T2 + R3 peptide; secondary only 123, unstained 99.8
[20] = target: T1, HLA-A*02:01 on T2 cells alone (no …); assay: flow cytometry, phage on T2 cells
[21] = target: T12, T2+EW; assay: flow cytometry, phage on T2 + EW peptide; secondary only 113, unstained 94.7
[22] = target: T3, Foxp3-7 peptide/HLA-A*02:01 complex on …; assay: flow cytometry, phage on T2 + Foxp3-7 peptide; secondary only 133, unstained 103
[23] = target: T1, HLA-A*02:01 on T2 cells alone (no …); assay: flow cytometry, phage on T2 without peptide; secondary only 100, unstained 99.5
[24] = target: T1, HLA-A*02:01 on T2 cells alone (no …); assay: flow cytometry, phage on T2 without peptide; remark: listed apart in the source

| Binder | Median:FITC-A [2] | MFI [5] | MFI [6] | MFI [7] | MFI [8] | MFI [9] | MFI [10] | MFI [11] | MFI [12] | MFI [13] | Median:FITC-A [15] | MFI [16] | Median:FITC-A [21] | Median:FITC-A [22] | Median:FITC-A [23] | binding result [24] | further results |
| --- | --- | --- | --- | --- | --- | --- | --- | --- | --- | --- | --- | --- | --- | --- | --- | --- | --- |
| B1 | 121 | 5780 | 98.5 | 98.9 | 149 | 25800 | 95.3 | 95.8 | 1100 | 12100 | 2700 | 89.5 |  |  |  |  | Median:FITC-A [1]: 355; Median:FITC-A [3]: 1050; binding result [4]: no binding; Median:FITC-A [14]: 346 |
| B2 | 123 | 2260 | 95.4 | 96.3 | 131 | 21200 | 98.2 | 99 | 222 | 6400 | 2820 | 90.4 |  |  |  |  | Median:FITC-A [1]: 355; Median:FITC-A [3]: 1940; Median:FITC-A [17]: 150; Median:FITC-A [14]: 371; Median:FITC-A [18]: 658; Median:FITC-A [19]: 145; binding result [20]: no binding |
| B3 | 124 | 741 | 98.1 | 97.8 | 94.7 | 23600 | 99.8 | 103 | 7880 | 3590 | 2590 | 92.9 | 144 | 1760 | 151 |  | Median:FITC-A [17]: 143; Median:FITC-A [18]: 745; Median:FITC-A [19]: 146; binding result [20]: no binding |
| B4 |  |  |  |  |  |  |  |  |  |  |  |  | 141 | 1040 | 146 | no binding |  |
| B5 |  |  |  |  |  |  |  |  |  |  |  |  | 144 | 982 | 141 | no binding |  |
| B6 | 128 | 96.4 | 95 | 94.9 | 95.6 | 17100 | 96 | 93.7 | 4070 | 11100 | 2300 | 91.3 | 139 | 1220 | 136 | no binding |  |
| B7 |  |  |  |  |  |  |  |  |  |  |  |  | 151 | 1130 | 149 | no binding |  |
| B8 | 129 |  |  |  |  |  |  |  |  |  | 2460 |  | 149 | 2050 | 142 | no binding |  |
